Residue numbers refer to the chain shown, from its start.
B1: antibody 31F3 (human IgG) (antibody, V domains shown)
VH: QVQLEQSGAEVKRPGASVKVSCKASGYTFTGYYLHWVRQAPGQGLEWMGRINPGSGGTKYAQKFQGRVSMTRDTSISTAYMEVNRLRPDDTAVYYCARYQVYGERGRYMDVWGKGTTVTVSS
VL: QSALTQPASVSGSPGQSITISCTGTSSDVGTYDLVSWYQQHPGKAPKLIIYEDNKRPSGLSNRFSGSKSGNTASLTISGLQADDEADYYCCSYAAISTLIFGGGTKVTVL
B2: 30E1 Fab (Fab, V domains shown)
VH: QVQLVQSGAEVKKPGASVKVSCKTSGYTFTDYYLHWVRQAPGQGLEWMGRINPNSGNTNYAQKFQGRVSVTRDTSISTAYMELSRLSSDDTAVYFCARVKIVVLRSTPTLYYFDYWGQGTLVTVSS
VL: B1 VL with L48V, I49M, D53G, N54S, L60V, D83E, A95G, I96T, I100V
B3: antibody 30E1 (human IgG) (antibody, V domains shown)
VH: B2 VH
VL: B1 VL with L48V, I49M, D53G, N54S, L60V, D83E, A95G, I96T, I100V
B4: 31F3 Fab (Fab, V domains shown)
VH: B1 VH
VL: B1 VL

Legend:
[1] = biological target: recombinant in vitro phosphorylated full-length TDP-43 (TDP-43-MBP phosphorylated with casein kinase 1 delta) (human) (UniProt Q13148); experiment: SPR Biacore 8K, 25 C, in vitro phosphorylated TDP-43 amine-coupled on CM5, IgG as analyte (avidity)
[2] = biological target: recombinant in vitro phosphorylated full-length TDP-43 (TDP-43-MBP phosphorylated with casein kinase 1 delta) (human) (UniProt Q13148); experiment: SPR Biacore 8K, 25 C, in vitro phosphorylated TDP-43 amine-coupled on CM5, Fab as analyte

Row | Binder | Kd [1] | koff [1] | kon [1] | Kd [2] | koff [2] | kon [2]
1 | B1 | 0.01 nM | 0.0003 s⁻¹ | 2.5e+07 M⁻¹ s⁻¹ |  |  | 
2 | B2 |  |  |  | 34 nM | 0.11 s⁻¹ | 3.1e+06 M⁻¹ s⁻¹
3 | B3 | 0.02 nM | 0.00061 s⁻¹ | 3e+07 M⁻¹ s⁻¹ |  |  | 
4 | B4 |  |  |  | 2.5 nM | 0.017 s⁻¹ | 6.8e+06 M⁻¹ s⁻¹

Reference: patent publication US20240150449A1
